According to the domain aggregation screens of Martell et al. (2025):

Experiment: soluble fraction after stress (log2 fold change); higher = more stays soluble; pooled small domains, quantitative proteomics
Conditions: stress: 50 degC
Outline: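 After stress at 50°C, the amount of each protein still soluble was measured. This was done on pooled custom libraries of small protein domains, using high-throughput quantitative proteomics. The figure given is a base-two log fold change and stands for aggregation propensity, with higher values meaning more protein stays in solution.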

| Sequence | soluble fraction (log2) |
| --- | --- |
| HMDPTEPLFVGVVTAEPYLNIREYPTTQSKDLGDLFPGMHVNVYEIVPNWYRIDDGWVASAWVKRDWGGG | -1.2 |
| HMDPTIRRGELIDAASRLFLSKGYAATSVRDILDEVGNRTASPSVFYYYFKSKEEIYQAVLRRHSE | -0.847 |
| HMDPTVSGQTGSVVREIRPGVPGEVELSVPLYGIRRWQAMADGILAEGTRVTVIQAEGVRLSVRPV | -0.0839 |
| HMDPTVTFIVQVNGRVRDKITLSSDISENEAKNVALESPKITPHISGKSLSRVIFVPGKLINLVV | -0.578 |
| HMDPVATLTPREREVLELMAEGRTNAGIAEAMVVTEGAVEKHIQRIFAKLGLHADGGVHRRVAAVLALLG | -1.01 |
| HMDQDIILHKVQPGDTLSKILLHYHSHQDRNKLQGLIAESMTANPFIKNPDLIYPGQLIQVPVPA | 0.05 |
| HMDQFMLQSAWLRAVQHVMKHTDDVGTQFAEEARRMHYGEADERPIRGQATSDEARALHDEGIEVMALPI | -0.303 |
| HMDQILIHLKEGIDVTDVQPMLKALDLNVRMFNRDKNIIVISVLNRELDAIPQTIAALRPWEELFDSA | -0.00536 |
| HMDQNVSVPKLAGLQVEEANAILKSKGLHIEIIDSIYQKDAVPGAIIEQVPEENSKVKKGRAIYVSVYAK | -0.227 |
| HMDQVYYDLKSLIELLPADQMEVLKMRYFEELSFKKIAQKIDVSINTALGRMRYALINLRALSKKHHID | -0.189 |
| HMDRDMGSMTDFENVRDAYLTGKVWNVGDLIEANGITGIIIRKGTNYVSYNDGDGKVHKAWLHDITL | -0.886 |
| HMDREILWTNYVAARKQEFIASSIDTIGAEYLDNRRFWDTQFEREWTIIAERLASGFGLTDDILSIVGSDF | -4.12 |
| HMDRETEEYELIRAKLEWLYQKQTGTIRNQTAKILHHLEIAKEEGNYYLYLKIKEEAKQWLVQASMYLD | -0.231 |
| HMDRGDVTREALIKAAIEIFGRDGFHAASTRAIAERAGANQALIGYHFRGKLGLYHATFEYIIGKI | -0.315 |
| HMDRMINYSPIVAKVPQDDYTTKVYNIPIYSELTVVDKISEPEPLIAPIYRFKYITPEDEEIEFDIPV | 0.0278 |
| HMDRMMQPETWGRVYQWITDDPQVPDREEVLTLIKYHYGDFGKLMKLLHRLNEGKAWTYLSEHIFPRM | -0.123 |
| HMDRNEFVSTLRAALTGAVSPAIVEDNVRYYQNYISQEIASGKSEKEVLDGLGDPRLIARTIIDT | 0.0674 |
| HMDRNIVYSDFIRSVNQGQVSEVLVQGDNIRGRYLNGKVFQTFAPKDPSLISTLRNKGVRISAEPA | 0.113 |
| HMDRRSTTLQDIYTRIDAEEISEALELIPKLGEIEFEQNRAEIAEAAGVRPAVLDKLRKQAAKQENNKK | -0.0355 |
| HMDRSAQVLFLEHARSRLPQRIQWAEELAELLSIGIDSAYRRIRGETALTFNEAVSVSRKYDISLDYLFK | -3.62 |
| HMDRSKREKEQQELMLKVQQIFDDNQQRFGAEKIRTVLAQNGVRVSVKRVSAIMQELNLRSIR | -0.871 |
| HMDRVMPVPEALIGMRFDIAVSRMLGVSRSQAAAYIDRGQVSIAGRGSQRSAQKSEKLVQGDSIEVAIA | -0.318 |
| HMDRWSLLTLTTLAGGTLRFTELKRAIGDISQRMLAQTLRTLEREGYVSRKVYATIPPKVEYRLTALGQSL | -3.05 |
| HMDRYAVRAEELAAALAQYHRHVGVYPENLEDLIAPTGPRGYRGPYLSELPTNPSTSKPDWGYDPATGRVS | 0.198 |
| HMDSAFVSDIRDAFDEAGVDSYRFFGTHSFKRGGVQLYRLLGVSDQEIKERGHWQTFSAYFAYVQA | 0.218 |

| Sequence | soluble fraction (log2) |
| --- | --- |
| HMDSESGAIIRRAVAQLAPKFRSTIVLRLIEGYSTEETAQILQLPVGTVLSRLARAKVQLMNLLTPYKEL | -0.126 |
| HMDSIDIDAETKSLGPNAPQIIKGIKEWGQGLVAKGVWSDQDFEEFKVFAATANGINALNKVRKFY | -0.154 |
| HMDSIDVQQKKLLTDIELGNIEGIKLFLKRHNNTINFLTIKGFHPLVYAVRNNNMEIVNLFLTT | 0.172 |
| HMDSIGTQIRKLREEAEMPLRKLSALLDIDQSTLSKIERDERRANTQMIEQIAKIFKVNKEQLLVA | -0.926 |
| HMDSKPNDLLFVYVSQLIRSLTLNSSKKDSELADELEVSISQIRIWLKKLINEQLIVKESKPVKYRWKG | -2.95 |
| HMDSLARKTVNGAEFYIYPVESAEGFYSLRRKFGVSQEEVIKYNPSAQNGLKSGQVLLIPVT | -0.176 |
| HMDSLQDFAYEEIKKRIQNGEYAPGTKLNTQEISDSLGISRSPVLAAINRLIALGLVEATPRKGTTVA | 0.0527 |
| HMDSLSGQQGRVLEEINGFLQTGKVLLNGMEWSAVSKQPEDILPVDTEVVVVRVEGAHLVVKKA | 0.0592 |
| HMDSPRITMDQLRIGLYVYLDLTWFQHPFAFSHFKINSEDQIKTILGLGLKSVRYDPALSDPV | -2.67 |
| HMDSQSVFADLVKSLSQKIASIPVWFEYTKNEQYDLISSYVSAKLKDLGVEFSQEEKEKFITMFMNS | -0.267 |
| HMDSRQIIAALQARYADETGITALKIKFNNVLGYFVDVPARYGDPLMKPPLSETFIHRQTLASNVRF | -0.0732 |
| HMDSSITLMRMYIPKGHNWENKLISDVSMPTNSLALMIKRNGTTIIPKGDTMILAKDTLILSVPSYEPS | -1.13 |
| HMDSSNLSLIAGVGPTIEKKLRAAGITSWEQIAAWTEADVAKYDEELNLRGRITRDEWIEQAKELLAGKPP | -0.0993 |
| HMDSTLDLVATQGGRLDQVLAEMIPEHSRNRLQHWIKAGRVLVDGQPVLEPKHKIYGGEDLAVRVD | 0.278 |
| HMDSVSAVRTTHLNSYVLLLEKDGMAAATISRYIASMKGFFEYLFREHMIEEDPAFTLKPPKV | -0.0799 |
| HMDSVVPNVVGMTAEKANKALTDAGLNVKITGATIGSGAVVHSQSIPAGTVTSKGTVVSIEMRFAAAEGD | -0.135 |
| HMDSYSILGIEKESSMEDIEKAYIDKISKIKKEVKNEKNAAAFEAVLTKAYNDILSQKENISEEQELAE | 0.011 |
| HMDTAGSVAIVSKSVIENGFGEIKYKGTYFKAQSDVYIPKDQMVKVIGKGDEQGSFLIVEKLN | -0.0425 |
| HMDTIASESVRNRIEELISNENPKKPLSDQALVKMLQEFDIKIARRTVAKYREMLKIPPSSKRKQV | 0.0652 |
| HMDTIGSKVLAFLAGNLLDPTPFNYRFGYLYLNRTSKVIVEETDTYIDSGMRMTQEAVAEIMQKFAQ | -3.9 |
| HMDTITMAGERYAVSDLEKVSGDIFEKAFGFEIDPKTADAKDVLPTMPKSDVDLFKKLSGIKP | 0.19 |
| HMDTIYPFNPNFIDDYKGYVLGLNTNEIDRLLKYRSKGNWINSAEDFKKVTGIDDALLNKLSKSFKFPDWL | -1.44 |
| HMDTLRPLGRYQNVHLTKQELTALQSEFSDWSERIERLSSYMASTGRKYQNHAATIRLWAEKDK | 0.13 |
| HMDTMINLIGLNLKKAKKELSNLGVNVKKVRYKKSSVYDEGVVIDQSIEAGRNIKNGDFITITVSSGKA | 0.428 |
| HMDTNEPFAQLQLRFTDPIQYDYEVIRPVVLFSQSVTDRSDETEMPRTTVREKARQFVTEGMLGLVDK | -0.00748 |

| Sequence | soluble fraction (log2) |
| --- | --- |
| HMDTNTIIGLRIKALRTEKKYTLKYLSENSGLSIGFLSQLERGMTSVAIDSLDKISKVLDVELSSFFN | -2.93 |
| HMDTPMQEAVLQRLRDKVAQAAAGSKLPTVRQLIADYGVGQHVIQAALEKLRTEGLITSHVGKGTFVG | 0.447 |
| HMDTPMYMAIIEEVRFQIANEILKEGEQLPSIRNLAKTLKVSVITVKRAYKELEEAGYITTIPAKGSKVS | -1.43 |
| HMDTQKYDLNDDGRFDVQDVTYLQIKIAGDGELTDNQKKIADYNNDGKIDVQDVTSAQMLIS | -0.0732 |
| HMDTSADEVKQLIASFVEQEDKRKPLSDQKIVELLAEKEQKISRRTVAKYRDALNIPSSSKRKRF | 0.0434 |
| HMDTSISHLVGRTGEAVTDLRPAGTVMIDGELYDARATEGFIEKGEIVKAIKYQYGQLNVRRVSK | 0.0877 |
| HMDTVSYSTLLRDIDAKEIKQLDLVPGRREVRVQYNDGRRVTVPVFANDNQILRAAESSGTPLTVV | 0.183 |
| HMDVADITGTRKAAILLLTMDEELSKELLKEFERHEIEAIGKEIANIKYIPENIVKQVHSEFLKNINKS | -0.212 |
| HMDVFTAKTASHIQELREKLGQQAVFGRSDVQNALGLKATRSSALLREMAEHGIIEPVTGYGKGRYHFRS | 0.225 |
| HMDVIDDAQAMEIALEDAGLSMDDLDRYELELHTKRSELVYSIELKSGTEEYEYDLRAADGTILKRDTDF | -0.168 |
| HMDVLDVADNVNDDMSFADAFAAARSEVGAGGIFYWHGKAYGTYYENEWAGMSEEDKADYWDAVARTTS | -0.18 |
| HMDVLSPEEWIEFRTAYNNNRYISQYGSKGATIEDDYATRLAMIGGKESYYFLNDPRWTEPGYGNLK | -0.437 |
| HMDVMNEIQQKAFDIYIQSASLKNDFTPISERALAKKLHDMGLKSSMSAIGRWKKKFGWVQSLQNKVTLA | -0.128 |
| HMDVNKDLLGETLEKAKSYKADDWRKASYEALQKAIVEAEAVYKDEEADQVAVDRKVAALNKAINNLEAKG | -0.234 |
| HMDVNPETLSYYIERADISLDELRTSVKGIDLFLTGEKQPTFNQISNIAKKLNIPTGLLLINKPIEI | -0.375 |
| HMDVNSRIRQFLKKMKITVQTFESSIGKTNGYIAHTKSPTAGVLAEIAKVYPDLNLDWLITGEGEMLKN | -0.468 |
| HMDVPTSSITEVKKSPMDVFAQARKAETGVYIFNREKIAGVMLTKEQYEALVEELNTLRDTL | -0.438 |
| HMDVQEILGALSPDEKAAIGQLTSGEKHIDQIIAATRLPAARITSALTLLQIKGYVRALPGKRFSLTEKQ | -0.0961 |
| HMDVQPTTTKTMFYTVQQGETLFSISRKFGISVEEITKKNPLASSGLTVGMELLLPEKKEINSTIQS | 0.265 |
| HMDVSEITTIKWIIKETKLGINEKILIYVNSKNFTVETLMEGFEIMSKYLVENVSSDKIVYIKN | -0.179 |
| HMDVTDRLARRLQGLRSAQGLSLDALAARSGVSRSNISLIERGQSSPTATVLDKLSAALGVTLAALFEEP | -0.474 |
| HMDWVAYGAELRRRRLLAGWTVAELSRRINLSGMTIHQIEKGRGRLRPSELTLAKLAAALGMPTP | -3.47 |
| HMDYEVPEELEEKFSENPQFKEAFDNLTPGRQHQYIYHISQAKRSQTRINRIEKYYEHILNGKGMQD | 0.0659 |
| HMDYGTATASAILYLEKIDPENPYLLLAKDTITTNPKMSVNFALKGIIESKKGEKEENLNKALEIMSSL | 0.049 |
| HMDYKSNLQEMVQTTKKSVTYELVKEEGPAHDRTFTMNVIVDGIVLGTGTAKSKKEAEQEAAHQALEKKA | -0.0398 |
